Measured values published in the RNAGym collection of RNA variant scans (doi:10.1073/pnas.2313332121).

B1: TPR t1 (parent)
chain: GACCAAUCUGCCCUCAGAGCUCGAGAACAUCUUCGGAUGCAGAGGAGGCAGGCUUCGGUGGCGCGAUAGCGCCAACGUCCUCAACCUCCAAUGCAUCCCACCACAUGAUGAUGCCUGAAGAGCCUUGGUUUUUUG

Variants of: B1
Experiment: polymerase ribozyme fitness, log enrichment relative to wild type (log ratio); higher = more active; in vitro selection for triplet polymerase activity
In short: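 Genotype fitness is the logarithm of its enrichment divided by wild-type enrichment, using inverse-variance-weighted averages of replicates. That logarithm is base 2. Enrichment was measured by Illumina sequencing of input and output libraries from one triplicate in vitro selection round, with frozen incubation at −7 °C, on PCR-built, transcribed mutant libraries of each subunit of a heterodimeric triplet polymerase ribozyme, retaining genotypes with ≥10 input reads and ≥1 read per output.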

First: GACCAAUCUGGCCUCAGAGCUCGAGAACAUCUUCGGAUGCAGAGGAGGCAGUCUUCGGUGGGGCGAUAGCGCCAACGUCCUCAACCUCCAAUGCAUCCCACCACAUGAUGAUGCCAGAAGAGCCUUGGUUUUUUG
Second: GACCAAUCUGCCCUCAGUGCUCGAGAACAUCUUCGGAUGCAGAGGAGGCAGGCUUCGGUGGCGCGAUAUCGCCAACGUCCUCAACCUCCAAUGCAUCCCACCACAUGAUGAUGCGUGAAGAGCCUUGGUUUUUUG
The “polymerase ribozyme fitness (log ratio)” value of the first is lower: -5.35 for the first, -0.333 for the second.

Going from GCCCAAGCUGCCCUCAGAGCUCGAGAACAUCUUCGGAUGCAGCGGAGGCAGGCUUCGGUGGCCCGAUAGCGCCAACGUCCUCAACCUCCAAUGCAUCCCACCACAUGAUGAUGCUUGAAGAGCCUUGGUUUUUUG to GACCAAUCUGCCCUCAGAGCUCGAGAACAUCUUCGGAUGCAGAGGAGUCUGGCUUCGGUGGCGCGAUAGCGCCAACGUCCUCAACCUCGAAUGCAUCCCACCACAAGAUGAUGCCCGAAGAGCUUUGGUUUUUUG, the “polymerase ribozyme fitness (log ratio)” value rises from -4.87 to -3.34.

Compared with GACCAAUCUGCCCUCAGAGCUCGAGAACAUCUUCGGAUGCAGAGGAGGCAUGCUUCGGUGGCGCGAUAGCGCGAACGUCCUCAACCUCCAAUGCAUCCCACCACAUGAUGAUGCCUGAAGAGCCUUGGUUUUUUG, GACCAAUCUGCCCUCAGAGCUCGAGAACAUCUUCGGAUGCAGAGGAGGCAGGCAUCGGUGGCGCGAUAGGGCCAACGUCCUCAACCUCCAAUGCAUCCCACCACAUGAUGAUGCUUGAAGAGCCUUGGUUUUUUG is lower in “polymerase ribozyme fitness (log ratio)” value: -3.52 for the first, -5.02 for the second.

Going from GACCAAUCUGCCCUCAGUGCUCGAGAACAUCUUCGGAUGCAGAGGAGGCAGGCUUCGGUGGCGCGAUAGCGCCAACGUCCUCAACCUCCAGUGCAUCCCACCACAUGAUGAUGCCUGAAGAGCCUUGGUUUUUUG to GACCAAUCUGCCCUCAGAGCUCGAGAACAUCUUCGGAUGCAGAGGAGGCAGUCUUCGGUGGCGCGAUAGCGCCAACGUGCUCGACCUCCAAUGCAUCCCACCACAUGAUGAUGCCUGAAGGGCCUUGGUUUAUUG, the “polymerase ribozyme fitness (log ratio)” value rises from -1.85 to 0.919.

GACCAAUCUGCCCUCAGAGCUCGAGAACAUCUUCGGAUGCAGAGGAGGCAGACUUCGGUGGCGCGAUAACGCCAACGUCCUCAACCUCCAAUGCAUCCCACCACAUGAUGAUGCCUGAAGAGCCUUGGUUUUUUG and GACCAAUCUGCCCUCAGAGCUCGAGAACAUCUUCGGAUGCAGAGGAGGCAGGCUUCGGUGGCGCGAUAGCGCCAACGUCCUCAACCUCCAAUGCAUCCCACCACAUGACGAUGCCUGAAGGGCAUUCGUUUUUUG are within 0.2 log units of each other in “polymerase ribozyme fitness (log ratio)” value: -3.61 for the first, -3.66 for the second.

Compared with GACCAAUCUGCCCUCAGAGCUCGAGAACAUCUUCGGAUGCAGAGGAGGCAGGCUUCGGUGGCGCGAUAGUGCCAACGUCCUCAACCUCCAAUGCAUCCCACCACAUGAUGAUGCCUGAAGAUCCUUGGUUUUUUG, GACCAAUCUGCCCUCAGAGCUCGAGAACAUCUUCGGAUGCAGAGGAGGUAGGCUUCGGUGGCGCGAUAGCGCCAACGUCCUCAACCUCCAAUGCAUCCCACAACAUGAUGAUGCCUGAAGAGCCUUGGUUUUUUG is lower in “polymerase ribozyme fitness (log ratio)” value: -0.0756 for the first, -3.24 for the second.

Going from GACCAAUCUGCCCUCAGAGCUUGAGAACAUCUUCGGAUGCAGAGGAGGCAGGCUUCGGUGGCGCGAUAGCGCCAACGUCCUCAACGUCCAAUGCAUCCCCCCACAUGAUGAUGCCUGAAGUGCCUUGGUUUUUUG to GACCAAUCUGCCCUCAGAGCUCGAGAACAUCUUCGGAUGCAGAGGAGGCAGGCUUCGGUGGCGCGAUAUCGCCAACGUCCUCAACCUCCAAUGCAUCCCACCACAUGAUGAUACCUGAAGAGCCUUGGUUUUUUG, the “polymerase ribozyme fitness (log ratio)” value rises from -4.27 to -0.285.

Going from GACCAAUCUGCCCUCAGAGCUCGAGAAUAUCUUCGGAUACAGAGGAGGCAGGCCUCGGUGGCGCGAUAGCGCCAACGUACUCAACCUCCAAUGCAUCCCACCACAUGAUGAUGCCUGAAGAGCCUUGGUUUUUUG to GACCAAUCUGCCCUCAGAGCUCGAGAACAUCUUCGGAUGCAGAGGAGGCAGGCUUCGGUGGCGCGAUGGCGCUAACGUCCUCAACCUCCAAUGCAUCCCACCACAUGAUGAUGCCUGAAGAGCUUUGGUUUUUUU, the “polymerase ribozyme fitness (log ratio)” value rises from -4.8 to -3.48.

First: GACCAAUCUGUCCUCAAAGCUCGAGAACAUCUUCGGAUGCAGAGGAGGCAGGCUUCGGUGGCGUGAUAGCGCCAACGUCCUCCCCCUCCAAUGCAUCCCACCACAUGAUGAUGCCUGAGGAGCCUUGGUUUUUUG
Second: GACCAAUCUGCCCUCAGAGCUCGAGAACAUCUUCGGAUGCAGAGGAAGCAGGCUUCGGUGGCGCGAUAGCGCCAACGUCCUCAACCUCCAAUGCAUCCCAACACAUGAUGAUGCCUGAAGAGCCUUGGUUUUUUG
The “polymerase ribozyme fitness (log ratio)” value of the first is higher: -0.999 for the first, -1.93 for the second.

Going from GACCAAUCUGCCCUCAGAGCUCGAGAACAUCUUCGGAUGGCGAGGAGGCAGGCUUCGGUGGCGCGAUAGCGCCAACGUCCUCAACCUCCAAUGCAUCCCACCACAUGAUGAUGCCUGAAGAGCCUUGGUUUUUUG to GACCAAUCUGCCCUCAGAGCUCGAGAACAUCUUCGGAUGCAGAGGAGGCAGGCUUCGUUGGCGCGAUAGCGCCAUCGUACUCAACCUCAAAUGCAUCCCACCACAUGAUGAUGCCUGAACAGUCUUGGUUUUUUG, the “polymerase ribozyme fitness (log ratio)” value falls from -3.16 to -4.72.

In the case of GACCAAUGUGCCCUCAGAGCUCGAGAACAUCUUCGGAUGCAGAGGAGGCAGGCUUAGGUGGCGCGAUAGCGCCAACGUCCUCAACCUCCAAUGCAUCCCACCACAUGAUGAUGCCUGAAGAGCCAUGGUUUUGUG, the “polymerase ribozyme fitness (log ratio)” value is reported as -0.732.
